In this data set the target is Asp229 (UniProt position 204, GLPADDRVGDK). Kind of data set: kinetics. As to conditions: 25 °C, 100 mM NaCl, 10 mM HEPES.
The mark [1] stands for this setting: free enzyme (the authors interpret the pH dependence of kcat/KM as ionisation of the catalytic Asp in the substrate-free enzyme).

As for “V4 Kemp eliminase (GNCA4-12 ancestral beta-lactamase scaffold with extra C-terminal polypeptide segment) (synthetic construct (reconstructed ancestral class A beta-lactamase, GNCA node, last common ancestor of various Gram-negative bacteria); W229D;F290W;I250V;R256H;L260F;V261L;H291V;insertion of extra C-terminal polypeptide segment (sequence not stated))”, the pKa entry under setting [1] is recorded as “about 7”.
For the setting “free enzyme (the authors state that kcat/KM reports ionisation in the substrate-free enzyme)”, “V4 Kemp eliminase (GNCA4-12 ancestral beta-lactamase-based de novo Kemp eliminase with an extra C-terminal polypeptide segment) (synthetic construct (reconstructed ancestral GNCA node beta-lactamase, last common ancestor of various Gram-negative bacteria); W229D;F290W;I250V;R256H;L260F;V261L;H291V;C-terminal polypeptide segment insertion)” gave a pKa of 6.7.
Turning to “V4-4 Kemp eliminase (V4 + L49I/G58Q/R230I/A257P/A262C) (synthetic construct (reconstructed ancestral class A beta-lactamase, GNCA node, last common ancestor of various Gram-negative bacteria); W229D;F290W;I250V;R256H;L260F;V261L;H291V;L49I;G58Q;R230I;A257P;A262C;insertion of extra C-terminal polypeptide segment (sequence not stated))”, the pKa result under setting [1] was “about 7”.
